One molecule from article PMC11339910 (Journal of molecular biology, 2024) can be followed below.

This assay has as its target IL-13 (UniProt P35225). Description: SPR. For orientation: SPR reads the build-up and loss of mass on a sensor chip optically.

Sequence of IL-13 (P35225 35-143): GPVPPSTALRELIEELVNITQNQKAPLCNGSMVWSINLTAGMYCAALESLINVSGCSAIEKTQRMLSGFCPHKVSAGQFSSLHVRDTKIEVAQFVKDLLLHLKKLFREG

B1: Fab region of tralokinumab (Fab, V domains shown)
VH: QVQLVQSGAEVKKPGASVKVSCKASGYTFTNYGLSWVRQAPGQGLEWMGWISANNGDTNYGQEFQGRVTMTTDTSTSTAYMELRSLRSDDTAVYYCARDSSSSWARWFFDLWGRGTLVTVSS
VL: SYVLTQPPSVSVAPGKTARITCGGNIIGSKLVHWYQQKPGQAPVLVIYDDGDRPSGIPERFSGSNSGNTATLTISRVEAGDEADYYCQVWDTGSDPVVFGGGTKLTVL
In the case of B1, the binding result is “binds”.
